Legend:
[1] = target: NS2A1251-1259 / HLA A*0101 (DENV2 strain S221; human)
[2] = target: NS53375-3383 / HLA A*0101 (DENV2 strain S221; human)
[3] = target: NS4B2399-2407 / HLA A*0101 (DENV2 strain S221; human)
[4] = target: NS2A1192-1200 / HLA A*0101 (DENV2 strain S221; human)
[5] = target: NS11090-1099 / HLA A*0101 (DENV2 strain S221; human)
[6] = target: E451-459 / HLA A*0101 (DENV2 strain S221; human)
[7] = target: NS2B1383-1391 / HLA A*0201 (DENV2 strain S221; human)
[8] = target: NS31863-1871 / HLA A*1101 (DENV2 strain S221; human)
[9] = target: NS4A2140-2148 / HLA A*0201 (DENV2 strain S221; human)
[10] = target: NS4A2205-2213 / HLA A*0201 (DENV2 strain S221; human)
[11] = target: NS53077-3085 / HLA B*0702 (DENV2 strain S221; human)
[12] = target: NS31509-1517 / HLA A*1101 (DENV2 strain S221; human)
[13] = target: NS53112-3121 / HLA A*1101 (DENV2 strain S221; human)
[14] = target: NS52608-2616 / HLA A*1101 (DENV2 strain S221; human)
[15] = target: NS31753-1761 / HLA B*0702 (DENV2 strain S221; human)
[16] = target: NS2A1212-1221 / HLA B*0702 (DENV2 strain S221; human)
[17] = target: NS31808-1817 / HLA B*0702 (DENV2 strain S221; human)
[18] = target: NS53079-3087 / HLA A*1101 (DENV2 strain S221; human)
[19] = target: NS2A1199-1213 / HLA DRB1*0101 (DENV2 strain S221; human)
[20] = target: NS2B1355-1363 / HLA A*0201 (DENV2 strain S221; human)
[21] = target: NS4B2280-2289 / HLA B*0702 (DENV2 strain S221; human)
[22] = target: NS53283-3291 / HLA A*1101 (DENV2 strain S221; human)
[23] = target: C53-67 / HLA DRB1*0101 (DENV2 strain S221; human)
[24] = target: E631-639 / HLA A*0201 (DENV2 strain S221; human)
[25] = target: NS32013-2022 / HLA A*0201 (DENV2 strain S221; human)
[26] = target: NS2B1450-1459 / HLA A*0201 (DENV2 strain S221; human)
[27] = target: NS31681-1689 / HLA A*0201 (DENV2 strain S221; human)
[28] = target: NS4B2296-2304 / HLA B*0702 (DENV2 strain S221; human)
[29] = target: NS53058-3066 / HLA A*0201 (DENV2 strain S221; human)
[30] = target: NS31682-1690 / HLA B*0702 (DENV2 strain S221; human)
[31] = target: NS4A2074-2083 / HLA A*1101 (DENV2 strain S221; human)
[32] = target: NS31465-1473 / HLA A*0201 (DENV2 strain S221; human)
[33] = target: NS52966-2980 / HLA DRB1*0101 (DENV2 strain S221; human)
[34] = target: NS31700-1709 / HLA B*0702 (DENV2 strain S221; human)
[35] = target: NS52646-2655 / HLA B*0702 (DENV2 strain S221; human)
[36] = target: NS2B1356-1370 / HLA DRB1*0101 (DENV2 strain S221; human)
[37] = target: NS31608-1617 / HLA A*1101 (DENV2 strain S221; human)
[38] = target: NS31978-1987 / HLA B*0702 (DENV2 strain S221; human)
[39] = target: NS52885-2894 / HLA B*0702 (DENV2 strain S221; human)
[40] = target: NS4B2315-2323 / HLA A*1101 (DENV2 strain S221; human)
[41] = target: purified HLA A*0201 molecules (human); experiment: inhibition of radiolabeled probe peptide binding to purified HLA
[42] = target: NS32070-2078 / HLA B*0702 (DENV2 strain S221; human)
[43] = target: target splenocytes pulsed with NS2B108-122, NS3198-212 and NS3237-251 together (I-A^b-restricted)

## splenic CD8+ T cells of DENV2 (S221)-infected HLA A*0101 transgenic IFN-α/βR-/- mice (cells without a defined receptor)
[1]
  T cell responses [SFC] mouse (IFNγ ELISPOT): 465 SFC
[2]
  T cell responses [SFC] mouse (IFNγ ELISPOT): 495 SFC
[3]
  T cell responses [SFC] mouse (IFNγ ELISPOT): 153 SFC
[4]
  T cell responses [SFC] mouse (IFNγ ELISPOT): 430 SFC
[5]
  T cell responses [SFC] mouse (IFNγ ELISPOT): 228 SFC
[6]
  T cell responses [SFC] mouse (IFNγ ELISPOT): 327 SFC

## PBMC from HLA matched DENV seropositive human donors (cells without a defined receptor)
[7]
  T cell responses [SFC] human (IFNγ ELISPOT): 434 SFC
[8]
  T cell responses [SFC] human (IFNγ ELISPOT): 0 SFC
[9]
  T cell responses [SFC] human (IFNγ ELISPOT): 297 SFC
[10]
  T cell responses [SFC] human (IFNγ ELISPOT): 301 SFC
[11]
  T cell responses [SFC] human (IFNγ ELISPOT): 390 SFC
[12]
  T cell responses [SFC] human (IFNγ ELISPOT): 0 SFC
[13]
  T cell responses [SFC] human (IFNγ ELISPOT): 0 SFC
[1]
  T cell responses [SFC] human (IFNγ ELISPOT): 143 SFC
[14]
  T cell responses [SFC] human (IFNγ ELISPOT): 0 SFC
[15]
  T cell responses [SFC] human (IFNγ ELISPOT): 410 SFC
[16]
  T cell responses [SFC] human (IFNγ ELISPOT): 335 SFC
[17]
  T cell responses [SFC] human (IFNγ ELISPOT): 232 SFC
[2]
  T cell responses [SFC] human (IFNγ ELISPOT): 143 SFC
[18]
  T cell responses [SFC] human (IFNγ ELISPOT): 0 SFC
[3]
  T cell responses [SFC] human (IFNγ ELISPOT): 92 SFC
[19]
  T cell responses [SFC] human (IFNγ ELISPOT): 249 SFC
[20]
  T cell responses [SFC] human (IFNγ ELISPOT): 417 SFC
[21]
  T cell responses [SFC] human (IFNγ ELISPOT): 0 SFC
[22]
  T cell responses [SFC] human (IFNγ ELISPOT): 800 SFC
[23]
  T cell responses [SFC] human (IFNγ ELISPOT): 314 SFC
[24]
  T cell responses [SFC] human (IFNγ ELISPOT): 393 SFC
[25]
  T cell responses [SFC] human (IFNγ ELISPOT): 312 SFC
[26]
  T cell responses [SFC] human (IFNγ ELISPOT): 588 SFC
[27]
  T cell responses [SFC] human (IFNγ ELISPOT): 401 SFC
[5]
  T cell responses [SFC] human (IFNγ ELISPOT): 104 SFC
[28]
  T cell responses [SFC] human (IFNγ ELISPOT): 460 SFC
[29]
  T cell responses [SFC] human (IFNγ ELISPOT): 597 SFC
[30]
  T cell responses [SFC] human (IFNγ ELISPOT): 207 SFC
[31]
  T cell responses [SFC] human (IFNγ ELISPOT): 3090 SFC
[32]
  T cell responses [SFC] human (IFNγ ELISPOT): 495 SFC
[33]
  T cell responses [SFC] human (IFNγ ELISPOT): 729 SFC
[34]
  T cell responses [SFC] human (IFNγ ELISPOT): 1430 SFC
[35]
  T cell responses [SFC] human (IFNγ ELISPOT): 0 SFC
[36]
  T cell responses [SFC] human (IFNγ ELISPOT): 279 SFC
[37]
  T cell responses [SFC] human (IFNγ ELISPOT): 880 SFC
[38]
  T cell responses [SFC] human (IFNγ ELISPOT): 1820 SFC
[39]
  T cell responses [SFC] human (IFNγ ELISPOT): 1340 SFC
[6]
  T cell responses [SFC] human (IFNγ ELISPOT): 67 SFC
[40]
  T cell responses [SFC] human (IFNγ ELISPOT): 0 SFC

## NS31681-1689 (peptide)
[41]
  IC50: 18 nM

## splenic CD8+ T cells of DENV2 (S221)-infected HLA B*0702 transgenic IFN-α/βR-/- mice (cells without a defined receptor)
[11]
  T cell responses [SFC] mouse (IFNγ ELISPOT): 487 SFC
[42]
  T cell responses [SFC] mouse (IFNγ ELISPOT): 1850 SFC
[15]
  T cell responses [SFC] mouse (IFNγ ELISPOT): 509 SFC
[16]
  T cell responses [SFC] mouse (IFNγ ELISPOT): 400 SFC
[17]
  T cell responses [SFC] mouse (IFNγ ELISPOT): 364 SFC
[21]
  T cell responses [SFC] mouse (IFNγ ELISPOT): 1540 SFC
[28]
  T cell responses [SFC] mouse (IFNγ ELISPOT): 1010 SFC
[30]
  T cell responses [SFC] mouse (IFNγ ELISPOT): 1290 SFC
[34]
  T cell responses [SFC] mouse (IFNγ ELISPOT): 1060 SFC
[35]
  T cell responses [SFC] mouse (IFNγ ELISPOT): 994 SFC
[39]
  T cell responses [SFC] mouse (IFNγ ELISPOT): 811 SFC

## CD4+ T cells of DENV2-infected IFN-α/βR-/- mice (C57BL/6 background) (cells without a defined receptor)
[43]
  in vivo cytotoxicity assay, percentage killing: 30%
